Assay results: US20250188176A1 (INVETX, published 2025)
Where two headings read alike, the source gives them in different places.

How the values were obtained:
[1] = biological target: T1, Extracellular domain (ECD) of the canine IL-4 receptor alpha-AviTag-His Tag (canine); test: SPR, IgG captured via anti-dog Fc
T1 construct: expressed in CHO cells; also called canine IL-4RA; canine IL4Ra
T1 chain: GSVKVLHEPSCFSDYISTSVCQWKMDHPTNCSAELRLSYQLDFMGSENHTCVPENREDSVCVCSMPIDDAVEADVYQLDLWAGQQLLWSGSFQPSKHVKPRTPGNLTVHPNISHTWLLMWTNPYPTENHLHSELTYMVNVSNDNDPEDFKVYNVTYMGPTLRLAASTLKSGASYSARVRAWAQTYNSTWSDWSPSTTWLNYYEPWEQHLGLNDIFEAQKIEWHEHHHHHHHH
Description: (§1) Both the heavy and light chain variants were evaluated for their binding kinetics to canine IL-4RA using SPR on a Biacore T200. The antibodies were captured using a CM5 Series S chip amine coupled with an anti-dog Fc antibody (Jackson Immunoresearch). […] The length of the association time was 120 s and the dissociation time was run for 600 s. The chip surface was regenerated with 10 mM glycine. Double reference-subtracted sensorgrams were fitted to a 1:1 binding model using Biacore T200 Evaluation software.

[2] = biological target: T1, Extracellular domain (ECD) of the …; test: SPR, IgG captured via anti-dog Fc
Description: as §1

[3] = biological target: T1, Extracellular domain (ECD) of the …; test: SPR, IgG captured via anti-dog Fc
Description: as §1
Six different combinations of heavy and light chain variants (Table 30) were co-transfected and produced as described above. The binding kinetics of the heavy and light chain variants to canine IL-4RA was determined using the SPR methods described above.

[4] = biological target: T2, Extracellular domain (ECD) of the canine IL-4 receptor alpha-V5 epitope-AviTag-His Tag (canine); test: SPR, Fab-SASA captured on BSA;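 also: biacore T200 SPR, Fab-SASA variants from E. coli conditioned medium captured on BSA-coated CM5 chip, canine IL-4RA injected 120 s then 420 s dissociation, 1:1 model fit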
T2 construct: monomeric form isolated by size exclusion; also called canine IL-4RA-V5-Avi-His; canine IL-4RA
T2 chain: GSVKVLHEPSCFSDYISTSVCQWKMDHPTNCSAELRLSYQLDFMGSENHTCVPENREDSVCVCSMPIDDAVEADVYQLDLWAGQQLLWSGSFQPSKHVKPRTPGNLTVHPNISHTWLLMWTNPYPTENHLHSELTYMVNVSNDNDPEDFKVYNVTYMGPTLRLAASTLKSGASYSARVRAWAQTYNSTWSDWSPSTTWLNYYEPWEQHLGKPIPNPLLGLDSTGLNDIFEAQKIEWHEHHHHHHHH
Description: Forty-four PML clones were selected from each library for expression in E. coli in 96 deep-well plates by inoculating into 2YT medium and inducing with 0.2 mM IPTG overnight at room temperature. The Fab secreted in the medium was analyzed for binding activity by completing an ELISA. […] The 39 unique clones were confirmed by an off-rate screening assay in an SPR assay performed on a Biacore T200. For the SPR analyses, bovine serum albumin (BSA) was immobilized to CM5 sensor chip. The sensor chip surface was activated with 50 mmol/L H-Hydroxysuccinimide and 200 mmol/L 1-ethyl-3-(3-dimethylaminopropyl) carbodiimide hydrochloride for 420 s. Afterwards, BSA diluted in 10 mM sodium acetate, pH 4.5 was injected. After the amine coupling reaction, the remaining active coupling sites on the chip surface were blocked with 1 mM ethanolamine hydrochloride. The selected Fab-SASA variants in conditioned medium were captured on the BSA-coated chips. The running buffer was HBS-EP (10 mM HEPES 500 mM NaCl, 3 mM EDTA, 0.05% Tween 20, pH 7.4). After equilibration, canine IL-4RA was injected for 120 seconds (association phase) followed by the injection of running buffer for 420 sec (dissociation phase). The off-rates of the Fab-SASA clones were obtained from fitting the experimental data locally to a 1:1 interaction model using the Biacore T200 evaluation software.

B1: 21188-H + FJP10A09-L (antibody, V domains shown)
VH: EVQLVESGGDLVKPGGSLRLSCVASGFTFRDYAMTWVRQAPGKGLQWLSLISGSGGKTYYADAVKGRFTISRDNAKNTLYLQMNSLRAEDTAVYYCAVDRLTKTIRPQYYGLWHWGQGTLVTVSS
VL: DIVMTQTPLSLSVSPGETASISCRSSQSLTYSIGYNYLDWYMQKPGQSPQGLIYLGSKRASGVSDRFSGSGSGADFTLKISRVEADDAGVYYCMQGLHSPLSFGQGTKLEIKR
For B1, the Kd [1] was 0.143 nM, the koff [1] was 4.62e-05 s⁻¹ and the kon [1] was 324000 M⁻¹ s⁻¹.

B2: 21188-H + FJP10F04-L (antibody, V domains shown)
VH: EVQLVESGGDLVKPGGSLRLSCVASGFTFRDYAMTWVRQAPGKGLQWLSLISGSGGKTYYADAVKGRFTISRDNAKNTLYLQMNSLRAEDTAVYYCAVDRLTKTIRPQYYGLWHWGQGTLVTVSS
VL: DIVMTQTPLSLSVSPGETASISCRSSKSLLYSIGYNYLDWYMQKPGQSPQGLIYLGSKRASGVSDRFSGSGSGADFTLKISRVEADDAGVYYCMQGLHSPLTFGQGTKLEIKR
With B2 the Kd [1] was 0.238 nM, the koff [1] was 6.81e-05 s⁻¹ and the kon [1] was 286000 M⁻¹ s⁻¹.

B3: FJP05A03-H + 21188-L (antibody, V domains shown)
VH: EVQLVESGGDLVKPGGSLRLSCVASGLPFRDYAMAWVRQAPGKGLQWLSLISGSGGKTYYADAVKGRFTISRDNAKNTLYLQMNSLRAEDTAVYYCAVDRLTKTIRPQYYGLWVWGQGTLVTVSS
VL: DIVMTQTPLSLSVSPGETASISCRSSQSLTYSIGYNYLDWYMQKPGQSPQGLIYLGSKRASGVSDRFSGSGSGADFTLKISRVEADDAGVYYCMQGLQSPLGFGQGTKLEIKR
In the case of B3, the Kd [2] is reported as 0.377 nM, the koff [2] is reported as 0.000105 s⁻¹ and the kon [2] is reported as 279000 M⁻¹ s⁻¹.

B4: FJP05A03-H + FJP10A09-L (antibody, V domains shown)
VH: EVQLVESGGDLVKPGGSLRLSCVASGLPFRDYAMAWVRQAPGKGLQWLSLISGSGGKTYYADAVKGRFTISRDNAKNTLYLQMNSLRAEDTAVYYCAVDRLTKTIRPQYYGLWVWGQGTLVTVSS
VL: DIVMTQTPLSLSVSPGETASISCRSSQSLTYSIGYNYLDWYMQKPGQSPQGLIYLGSKRASGVSDRFSGSGSGADFTLKISRVEADDAGVYYCMQGLHSPLSFGQGTKLEIKR
B4 showed a Kd [3] of 0.201 nM, a koff [3] of 8.87e-05 s⁻¹ and a kon [3] of 442000 M⁻¹ s⁻¹.

B5: FJP05A03-H + GFmix3_KTHS-L (antibody, V domains shown)
VH: EVQLVESGGDLVKPGGSLRLSCVASGLPFRDYAMAWVRQAPGKGLQWLSLISGSGGKTYYADAVKGRFTISRDNAKNTLYLQMNSLRAEDTAVYYCAVDRLTKTIRPQYYGLWVWGQGTLVTVSS
VL: DIVMTQTPLSLSVSPGETASISCRSSKSLTYSIGYNYLDWYMQKPGQSPQGLIYLGSKRASGVSDRFSGSGSGADFTLKISRVEADDAGVYYCMQGLHSPLSFGQGTKLEIKR
B5 was tested, and the Kd [3] was 0.187 nM, the koff [3] was 8.68e-05 s⁻¹ and the kon [3] was 466000 M⁻¹ s⁻¹.

B6: FJP05A03-H + GFmix_THS-L (antibody, V domains shown)
VH: EVQLVESGGDLVKPGGSLRLSCVASGLPFRDYAMAWVRQAPGKGLQWLSLISGSGGKTYYADAVKGRFTISRDNAKNTLYLQMNSLRAEDTAVYYCAVDRLTKTIRPQYYGLWVWGQGTLVTVSS
VL: DIVMTQTPLSLSVSPGETASISCRSSQSLTYSIGYNYLDWYMQKPGQSPQGLIYLGSKRASGVSDRFSGSGSGADFTLKISRVEADDAGVYYCMQGLHSPLGFGQGTKLEIKR
Binder B6 has a Kd [3] of 0.169 nM, a koff [3] of 8.32e-05 s⁻¹ and a kon [3] of 492000 M⁻¹ s⁻¹.

B7: FJP06D01-H + 21188-L (antibody, V domains shown)
VH: EVQLVESGGDLVKPGGSLRLSCVASGFPFRDYAMDWVRQAPGKGLQWLSLISGSGGKTYYADAVKGRFTISRDNAKNTLYLQMNSLRAEDTAVYYCAVDRLTKTIRPQYYGLWVWGQGTLVTVSS
VL: DIVMTQTPLSLSVSPGETASISCRSSQSLTYSIGYNYLDWYMQKPGQSPQGLIYLGSKRASGVSDRFSGSGSGADFTLKISRVEADDAGVYYCMQGLQSPLGFGQGTKLEIKR
Binder B7 has a Kd [2] of 0.908 nM, a koff [2] of 0.000208 s⁻¹ and a kon [2] of 230000 M⁻¹ s⁻¹.

B8: FJP07H09-H + 21188-L (antibody, V domains shown)
VH: EVQLVESGGDLVKPGGSLRLSCVASGFTFRDYAMDWVRQAPGKGLQWLSLISGSGGKTYYADAVKGRFTISRDNAKNTLYLQMNSLRAEDTAVYYCAVDRLTKTIRPQYYGLWSWGQGTLVTVSS
VL: DIVMTQTPLSLSVSPGETASISCRSSQSLTYSIGYNYLDWYMQKPGQSPQGLIYLGSKRASGVSDRFSGSGSGADFTLKISRVEADDAGVYYCMQGLQSPLGFGQGTKLEIKR
Binder B8 has a Kd [2] of 1.07 nM, a koff [2] of 0.000253 s⁻¹ and a kon [2] of 236000 M⁻¹ s⁻¹.

B9: Fjmix_PS-H + 21188-L (antibody, V domains shown)
VH: EVQLVESGGDLVKPGGSLRLSCVASGFPFRDYAMDWVRQAPGKGLQWLSLISGSGGKTYYADAVKGRFTISRDNAKNTLYLQMNSLRAEDTAVYYCAVDRLTKTIRPQYYGLWSWGQGTLVTVSS
VL: DIVMTQTPLSLSVSPGETASISCRSSQSLTYSIGYNYLDWYMQKPGQSPQGLIYLGSKRASGVSDRFSGSGSGADFTLKISRVEADDAGVYYCMQGLQSPLGFGQGTKLEIKR
B9 was tested, and the Kd [2] was 0.878 nM, the koff [2] was 0.000206 s⁻¹ and the kon [2] was 235000 M⁻¹ s⁻¹.

B10: GFmix_PTH-H + FJP10A09-L (antibody, V domains shown)
VH: EVQLVESGGDLVKPGGSLRLSCVASGFPFRDYAMTWVRQAPGKGLQWLSLISGSGGKTYYADAVKGRFTISRDNAKNTLYLQMNSLRAEDTAVYYCAVDRLTKTIRPQYYGLWHWGQGTLVTVSS
VL: DIVMTQTPLSLSVSPGETASISCRSSQSLTYSIGYNYLDWYMQKPGQSPQGLIYLGSKRASGVSDRFSGSGSGADFTLKISRVEADDAGVYYCMQGLHSPLSFGQGTKLEIKR
With B10 the Kd [3] was 0.167 nM, the koff [3] was 7e-05 s⁻¹ and the kon [3] was 419000 M⁻¹ s⁻¹.

B11: Gfmix_PTH-H + 21188-L (antibody, V domains shown)
VH: EVQLVESGGDLVKPGGSLRLSCVASGFPFRDYAMTWVRQAPGKGLQWLSLISGSGGKTYYADAVKGRFTISRDNAKNTLYLQMNSLRAEDTAVYYCAVDRLTKTIRPQYYGLWHWGQGTLVTVSS
VL: DIVMTQTPLSLSVSPGETASISCRSSQSLTYSIGYNYLDWYMQKPGQSPQGLIYLGSKRASGVSDRFSGSGSGADFTLKISRVEADDAGVYYCMQGLQSPLGFGQGTKLEIKR
With B11 the Kd [2] was 0.381 nM, the koff [2] was 9.71e-05 s⁻¹ and the kon [2] was 255000 M⁻¹ s⁻¹.

B12: TB640_005 Fab-SASA VL-S57T (Fab, V domains shown)
VH: EVQLVESGGDLVKPGGSLRLSCVASGFTFRDYAMTWVRQAPGKGLQWVSLISGSGGKTYYADAVKGRFTISRDNAKNTLYLQMNSLRAEDTAVYYCAVDRLTKTIRPQYYGLWVWGQGTLVTVSS
VL: DIVMTQTPLSLSVSPGETASISCRSSQSLLYSIGYNYLDWYLQKPGQSPQGLIYLGTKRASGVPDRFSGSGSGTDFTLRISRVEANDTGVYYCMQGLQSPLTFGQGTKLEIKR
notes: not shown: SASA tag then His-tag
For B12, the Kd [4] was 15 nM, the “Ratio WT-kd/clone-kd” value [4] was 0.91 and the koff [4] was 0.00105 s⁻¹. It also gave a kon [4] of 70400 M⁻¹ s⁻¹.

B13: TB640_005 Fab-SASA VL-T102G (Fab, V domains shown)
VH: EVQLVESGGDLVKPGGSLRLSCVASGFTFRDYAMTWVRQAPGKGLQWVSLISGSGGKTYYADAVKGRFTISRDNAKNTLYLQMNSLRAEDTAVYYCAVDRLTKTIRPQYYGLWVWGQGTLVTVSS
VL: DIVMTQTPLSLSVSPGETASISCRSSQSLLYSIGYNYLDWYLQKPGQSPQGLIYLGSKRASGVPDRFSGSGSGTDFTLRISRVEANDTGVYYCMQGLQSPLGFGQGTKLEIKR
notes: as for B12
In the case of B13, the Kd [4] is reported as 5.74 nM, the “Ratio WT-kd/clone-kd” value [4] is reported as 2.11 and the koff [4] is reported as 0.000451 s⁻¹. It also gave a kon [4] of 78500 M⁻¹ s⁻¹.

B14: TB640_005 Fab-SASA VL-T102L (Fab, V domains shown)
VH: EVQLVESGGDLVKPGGSLRLSCVASGFTFRDYAMTWVRQAPGKGLQWVSLISGSGGKTYYADAVKGRFTISRDNAKNTLYLQMNSLRAEDTAVYYCAVDRLTKTIRPQYYGLWVWGQGTLVTVSS
VL: DIVMTQTPLSLSVSPGETASISCRSSQSLLYSIGYNYLDWYLQKPGQSPQGLIYLGSKRASGVPDRFSGSGSGTDFTLRISRVEANDTGVYYCMQGLQSPLLFGQGTKLEIKR
notes: as for B12
B14 was tested, and the Kd [4] was 6.53 nM, the “Ratio WT-kd/clone-kd” value [4] was 1.7 and the koff [4] was 0.000562 s⁻¹. It also gave a kon [4] of 86000 M⁻¹ s⁻¹.

B15: TB640_005 Fab-SASA VL-T102N (Fab, V domains shown)
VH: EVQLVESGGDLVKPGGSLRLSCVASGFTFRDYAMTWVRQAPGKGLQWVSLISGSGGKTYYADAVKGRFTISRDNAKNTLYLQMNSLRAEDTAVYYCAVDRLTKTIRPQYYGLWVWGQGTLVTVSS
VL: DIVMTQTPLSLSVSPGETASISCRSSQSLLYSIGYNYLDWYLQKPGQSPQGLIYLGSKRASGVPDRFSGSGSGTDFTLRISRVEANDTGVYYCMQGLQSPLNFGQGTKLEIKR
notes: as for B12
B15 was tested, and the Kd [4] was 6.83 nM, the “Ratio WT-kd/clone-kd” value [4] was 1.74 and the koff [4] was 0.000548 s⁻¹. For the same binder, the kon [4] was 80100 M⁻¹ s⁻¹.

B16: TB640_005 Fab-SASA VL-T102S (Fab, V domains shown)
VH: EVQLVESGGDLVKPGGSLRLSCVASGFTFRDYAMTWVRQAPGKGLQWVSLISGSGGKTYYADAVKGRFTISRDNAKNTLYLQMNSLRAEDTAVYYCAVDRLTKTIRPQYYGLWVWGQGTLVTVSS
VL: DIVMTQTPLSLSVSPGETASISCRSSQSLLYSIGYNYLDWYLQKPGQSPQGLIYLGSKRASGVPDRFSGSGSGTDFTLRISRVEANDTGVYYCMQGLQSPLSFGQGTKLEIKR
notes: as for B12
In the case of B16, the Kd [4] is reported as 6.61 nM, the “Ratio WT-kd/clone-kd” value [4] is reported as 1.94 and the koff [4] is reported as 0.000492 s⁻¹. The kon [4] was 74400 M⁻¹ s⁻¹.

B17: TB640_005 Fab-SASA VL-Y35M (Fab, V domains shown)
VH: EVQLVESGGDLVKPGGSLRLSCVASGFTFRDYAMTWVRQAPGKGLQWVSLISGSGGKTYYADAVKGRFTISRDNAKNTLYLQMNSLRAEDTAVYYCAVDRLTKTIRPQYYGLWVWGQGTLVTVSS
VL: DIVMTQTPLSLSVSPGETASISCRSSQSLLYSIGMNYLDWYLQKPGQSPQGLIYLGSKRASGVPDRFSGSGSGTDFTLRISRVEANDTGVYYCMQGLQSPLTFGQGTKLEIKR
notes: as for B12
In the case of B17, the Kd [4] is reported as 8.34 nM, the “Ratio WT-kd/clone-kd” value [4] is reported as 1.02 and the koff [4] is reported as 0.000932 s⁻¹. For the same binder, the kon [4] was 112000 M⁻¹ s⁻¹.
